Results from PMC8626509.
Values joined by “and” are separate entries in the source; they are usually repeats but may differ in a detail not shown here. Equal entries are not always repeated.

How the values were obtained:
Glu55 = Glu55 (UniProt position 56, LAAVMEYLAAE); test: NMR; conditions: 303 K, 200 mM (adjusted with NaCl)
Asp89 = Asp89 (UniProt position 90, LAIRNDEELNK); test: NMR; conditions: 303 K; 200 mM (adjusted with NaCl); 20 mM acetate pH 4.5, 5.1; 20 mM MES pH 5.6, 6.0, 6.5; 20 mM phosphate pH 6.8, 7.5, 7.9; 20 mM CHES pH 9.1; folded free H2A-H2B heterodimer (150 uM)
Glu60 = Glu60 (UniProt position 61, EYLAAEVLELA); test: NMR; conditions: 303 K; 200 mM (adjusted with NaCl); 20 mM sodium acetate (pH 4.4-5.1), 20 mM MES (pH 5.4-6.5), 20 mM sodium phosphate (pH 6.8-7.9), 20 mM CHES (pH 9.1); folded free H2A-H2B heterodimer
Glu63 = Glu63 (UniProt position 64, AAEVLELAGNA); test: NMR; conditions: 303 K; 200 mM (adjusted with NaCl); 20 mM sodium acetate (pH 4.4-5.1), 20 mM MES (pH 5.4-6.5), 20 mM sodium phosphate (pH 6.8-7.9), 20 mM CHES (pH 9.1); folded free H2A-H2B heterodimer
Glu91 = Glu91 (UniProt position 92, IRNDEELNKLL); test: NMR; conditions: 303 K, 200 mM (adjusted with NaCl)
Glu90 = Glu90 (UniProt position 91, AIRNDEELNKL); test: NMR; conditions: 303 K; 200 mM (adjusted with NaCl); 20 mM sodium acetate (pH 4.4-5.1), 20 mM MES (pH 5.4-6.5), 20 mM sodium phosphate (pH 6.8-7.9), 20 mM CHES (pH 9.1); folded free H2A-H2B heterodimer
His79 = His79 (UniProt position 80, ASRLAHYNKRS); test: NMR; conditions: 303 K; 200 mM (adjusted with NaCl); 20 mM acetate pH 4.4, 5.0; 20 mM MES pH 5.4, 5.8, 6.2; 20 mM phosphate pH 6.8, 7.1, 7.5; folded free H2A-H2B heterodimer (150 uM)
His106 = His106 (UniProt position 107, GELAKHAVSEG); test: NMR; conditions: 303 K; 200 mM (adjusted with NaCl); 20 mM acetate pH 4.4, 5.0; 20 mM MES pH 5.4, 5.8, 6.2; 20 mM phosphate pH 6.8, 7.1, 7.5; folded free H2A-H2B heterodimer (150 uM)
[1] = 20 mM sodium acetate (pH 4.4-5.1), 20 mM MES (pH 5.4-6.5), 20 mM sodium phosphate (pH 6.8-7.9), 20 mM CHES (pH 9.1), folded free H2A-H2B heterodimer

For “Histone H2A (in the free H2A-H2B heterodimer) (Drosophila melanogaster)”, the pKa (Glu55; 20 mM acetate pH 4.5, 5.1, 20 mM MES pH 5.6, 6.0, 6.5, 20 mM phosphate pH 6.8, 7.5, 7.9, 20 mM CHES pH 9.1, folded free H2A-H2B heterodimer (150 uM)) was 4.32 ± 0.08 [4.08–4.78], the pKa (Glu55; [1]) was less than 5 and the pKa (Asp89) was 5.51 ± 0.11 [4.37–6.07] and 5.02 ± 0.28 [4.61–5.61] and 5.3. For the same substance, the pKa (Glu60) was less than 5, the pKa (Glu63) was less than 5 and the pKa (Glu91; 20 mM acetate pH 4.4, 5.0, 20 mM MES pH 5.4, 5.8, 6.2, 20 mM phosphate pH 6.8, 7.1, 7.5, folded free H2A-H2B heterodimer (150 uM)) was 4.36 ± 0.06 [3.89–4.79]. For the same substance, the pKa (Glu91; [1]) was less than 5 and the pKa (Glu90) was less than 5.

With “Histone H2B (in the free H2A-H2B heterodimer) (Drosophila melanogaster)” the pKa (His46) was 5.86 ± 0.03 [5.66–6.06] and 5.64 ± 0.02 [5.54–5.74] and 5.75 ± 0.03 [5.52–5.92], the pKa (His79) was 6.7 and the pKa (His106) was 6.52 ± 0.05 [6.23–6.93].
